Target: the molecule itself
Test: SEC-MALS; data not shown; purified IRF-3 RD in various buffers, including 10 mM sodium phosphate pH 7 or buffer A (50 mM sodium phosphate pH 8, 300 mM NaCl, 10 mM imidazole); the method is told only in general (SEC-MALS in various buffers)

B1: IRF-3 RD (regulatory domain of IRF-3, residues 175-427, N-terminal hexahistidine tag; IRF-3 RDHN) (domain or fragment, human, UniProt Q14653 175-427, looked up)
chain: SLDNPTPFPNLGPSENPLKRLLVPGEEWEFEVTAFYRGRQVFQQTISCPEGLRLVGSEVGDRTLPGWPVTLPDPGMSLTDRGVMSYVRHVLSCLGGGLALWRAGQWLWAQRLGHCHTYWAVSEELLPNSGHGPDGEVPKDKEGGVFDLGPFIVDLITFTEGSGRSPRYALWFCVGESWPQDQPWTKRLVMVKVVPTCLRALVEMARVGGASSLENTVDLHISNSHPLSLTSDQYKAYLQDLVEGMDFQGPGES
notes: Human IRF-3, regulatory domain, residues 175-427; Dimer or monomer according to the buffer (monomer in buffers C and D); Also made uniformly 15N-labelled for NMR; source: E. coli Rosetta [DE3], purified (Talon IMAC, Hi-Trap Q, Superdex 200); not shown: His6, N-terminal, kept
stoichiometry N: 2

Source: PMC2686699, “The interaction between the measles virus nucleoprotein and the Interferon Regulator Factor 3 relies on a specific cellular environment” (Virology Journal, 2009)
